Measured values published in patent US20200261595A1 (Novo Nordisk, published 2020).

How the values were obtained:
[1] = molecular target: insulin receptor of isolated rat adipocytes (rat, UniProt P15127 27-1383); experiment: cell-based or functional assay
insulin receptor A = insulin receptor A (UniProt P06213-2 28-1370, limits assumed); experiment: insulin receptor binding assay as in Vienberg et al. 2011; relative to human insulin on insulin receptor A (100%)
Chain of insulin receptor A (P06213 other isoform, or with tags, fused parts or gaps limits assumed): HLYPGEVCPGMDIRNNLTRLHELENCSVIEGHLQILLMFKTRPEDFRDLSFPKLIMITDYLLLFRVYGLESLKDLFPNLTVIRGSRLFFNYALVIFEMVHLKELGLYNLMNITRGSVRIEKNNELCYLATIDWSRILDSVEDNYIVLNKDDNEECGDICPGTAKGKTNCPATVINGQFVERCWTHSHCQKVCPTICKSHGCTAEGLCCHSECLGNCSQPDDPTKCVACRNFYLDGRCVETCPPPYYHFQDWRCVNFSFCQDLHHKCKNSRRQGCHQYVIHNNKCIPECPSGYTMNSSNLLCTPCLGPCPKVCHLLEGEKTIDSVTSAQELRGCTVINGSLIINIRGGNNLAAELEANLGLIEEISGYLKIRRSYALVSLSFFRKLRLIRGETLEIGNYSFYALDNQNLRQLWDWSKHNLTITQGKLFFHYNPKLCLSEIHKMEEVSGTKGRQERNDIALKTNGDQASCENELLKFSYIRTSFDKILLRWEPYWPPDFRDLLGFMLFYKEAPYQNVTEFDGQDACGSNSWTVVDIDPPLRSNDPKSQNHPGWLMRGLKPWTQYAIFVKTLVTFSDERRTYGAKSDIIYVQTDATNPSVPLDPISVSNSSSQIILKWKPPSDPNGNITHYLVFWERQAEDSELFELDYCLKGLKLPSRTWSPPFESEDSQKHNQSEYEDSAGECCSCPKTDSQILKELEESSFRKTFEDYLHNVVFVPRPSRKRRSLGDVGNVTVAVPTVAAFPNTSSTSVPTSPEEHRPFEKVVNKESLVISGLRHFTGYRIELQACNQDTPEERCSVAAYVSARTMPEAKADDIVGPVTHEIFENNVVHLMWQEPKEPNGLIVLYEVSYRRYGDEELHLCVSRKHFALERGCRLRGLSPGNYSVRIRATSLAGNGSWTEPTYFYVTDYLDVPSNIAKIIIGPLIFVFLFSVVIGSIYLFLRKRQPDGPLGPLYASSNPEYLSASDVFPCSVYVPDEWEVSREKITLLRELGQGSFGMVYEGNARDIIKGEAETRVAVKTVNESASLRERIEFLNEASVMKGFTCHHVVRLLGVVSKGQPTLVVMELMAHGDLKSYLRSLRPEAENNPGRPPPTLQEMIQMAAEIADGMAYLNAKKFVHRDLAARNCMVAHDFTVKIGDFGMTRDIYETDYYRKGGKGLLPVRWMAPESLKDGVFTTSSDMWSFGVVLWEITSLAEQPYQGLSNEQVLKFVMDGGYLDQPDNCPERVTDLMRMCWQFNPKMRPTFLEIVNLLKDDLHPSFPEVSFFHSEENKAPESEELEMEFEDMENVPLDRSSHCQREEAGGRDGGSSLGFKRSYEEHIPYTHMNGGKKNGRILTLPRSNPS

Chain of insulin receptor of isolated rat adipocytes (P15127 27-1383): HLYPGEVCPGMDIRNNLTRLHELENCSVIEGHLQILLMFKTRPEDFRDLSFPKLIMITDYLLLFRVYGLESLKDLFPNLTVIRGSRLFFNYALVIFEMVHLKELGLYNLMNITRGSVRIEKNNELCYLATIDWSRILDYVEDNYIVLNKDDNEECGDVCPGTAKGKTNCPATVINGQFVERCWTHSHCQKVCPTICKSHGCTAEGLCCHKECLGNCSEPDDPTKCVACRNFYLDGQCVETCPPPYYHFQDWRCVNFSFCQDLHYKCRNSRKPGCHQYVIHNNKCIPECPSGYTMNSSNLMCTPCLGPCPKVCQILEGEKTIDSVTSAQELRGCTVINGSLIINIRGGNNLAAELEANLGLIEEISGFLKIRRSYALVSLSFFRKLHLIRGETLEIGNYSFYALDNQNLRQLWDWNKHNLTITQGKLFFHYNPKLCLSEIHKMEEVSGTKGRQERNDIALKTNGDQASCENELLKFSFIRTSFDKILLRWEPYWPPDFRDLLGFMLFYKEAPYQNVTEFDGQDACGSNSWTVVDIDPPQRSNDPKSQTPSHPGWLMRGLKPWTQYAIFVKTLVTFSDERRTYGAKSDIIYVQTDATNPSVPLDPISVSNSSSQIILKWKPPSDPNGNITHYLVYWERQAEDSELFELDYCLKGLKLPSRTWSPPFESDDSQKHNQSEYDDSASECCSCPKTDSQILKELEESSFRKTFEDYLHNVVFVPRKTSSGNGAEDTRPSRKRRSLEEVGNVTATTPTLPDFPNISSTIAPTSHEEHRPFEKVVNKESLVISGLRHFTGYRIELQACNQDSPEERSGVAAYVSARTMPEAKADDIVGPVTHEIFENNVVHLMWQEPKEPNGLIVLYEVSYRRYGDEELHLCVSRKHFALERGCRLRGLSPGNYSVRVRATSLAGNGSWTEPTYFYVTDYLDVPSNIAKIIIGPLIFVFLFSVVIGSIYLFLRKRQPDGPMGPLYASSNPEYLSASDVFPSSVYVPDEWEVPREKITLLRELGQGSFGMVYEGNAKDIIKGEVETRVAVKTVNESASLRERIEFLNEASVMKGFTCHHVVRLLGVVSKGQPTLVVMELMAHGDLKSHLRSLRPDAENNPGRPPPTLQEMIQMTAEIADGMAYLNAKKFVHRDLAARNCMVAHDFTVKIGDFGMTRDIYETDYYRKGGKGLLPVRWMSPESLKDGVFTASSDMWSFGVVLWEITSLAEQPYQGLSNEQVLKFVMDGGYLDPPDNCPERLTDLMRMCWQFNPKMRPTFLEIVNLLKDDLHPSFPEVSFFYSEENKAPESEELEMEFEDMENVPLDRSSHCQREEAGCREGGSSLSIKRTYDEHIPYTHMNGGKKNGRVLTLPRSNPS

Binder | Lipogenesis in rat adipocytes [Potency (%)] Mean Value [1] | Insulin receptor affinity [IC50 relative to HI (%)] (insulin receptor A) [%]
(A14E, A21G, A22(GQAP)24, A118G, A119Q, A120A, A121K^, A122P, B25H, B29R, desB30 human insulin)/(227A, 234A, 235K, 297E, 315Q, 384Q, des447 hIgG4-Fc(228-447)) … (other, Cys229 (EU numbering) sulphur bound to an acetyl arm of the linker; A121K N(eps) acylated by the trivalent linker 3,5-bis[(2-acetyl)amino]benzoyl, also called Ex 5.22) chain 1: GIVEQCCTSICSLEQLENYCGGQAPGQAPGQAPGQAPGQAPGQAPGQAPGQAPGQAPGQAPGQAPGQAPGQAPGQAPGQAPGQAPGQAPGQAPGQAPGQAPGQAPGQAPGQAPGQAPGQAKP chain 2: FVNQHLCGSHLVEALYLVCGERGFHYTPR chain 3: ASCPAPEAKGGPSVFLFPPKPKDTLMISRTPEVTCVVVDVSQEDPEVQFNWYVDGVEVHNAKTKPREEQFESTYRVVSVLTVLHQDWLQGKEYKCKVSNKGLPSSIEKTISKAKGQPREPQVYTLPPSQEEMTKNQVSLTCLVKGFYPSDIAVEWESQGQPENNYKTTPPVLDSDGSFFLYSRLTVDKSRWQEGNVFSCSVMHEALHNHYTQKSLSLSLG | 4.64 % of human insulin | 3.56
(A14E, A21G, A22(GQEP)19, A98K^, A99P, B25H, B29R, desB30 human insulin)/(227A, 234A, 235K, 297E, 315Q, 384Q, des447 hIgG4-Fc(228-447)) … (other, Cys229 (EU numbering) sulphur bound to an acetyl arm of the linker; A98K N(eps) acylated by the trivalent linker 4-[bis[2-[(2-acetyl)amino]ethyl]amino]-4-oxo-butanoyl, also called Ex 5.12) chain 1: GIVEQCCTSICSLEQLENYCGGQEPGQEPGQEPGQEPGQEPGQEPGQEPGQEPGQEPGQEPGQEPGQEPGQEPGQEPGQEPGQEPGQEPGQEPGQEPKP chain 2: FVNQHLCGSHLVEALYLVCGERGFHYTPR chain 3: ASCPAPEAKGGPSVFLFPPKPKDTLMISRTPEVTCVVVDVSQEDPEVQFNWYVDGVEVHNAKTKPREEQFESTYRVVSVLTVLHQDWLQGKEYKCKVSNKGLPSSIEKTISKAKGQPREPQVYTLPPSQEEMTKNQVSLTCLVKGFYPSDIAVEWESQGQPENNYKTTPPVLDSDGSFFLYSRLTVDKSRWQEGNVFSCSVMHEALHNHYTQKSLSLSLG | 2.35 % of human insulin | 1.85
A14E, A21G, A22(GQAPGQAPGQEP)6-GQAP, A98K^, A99P, B3Q, B25H, B29R, desB30 human insulin/(227A, 234A, 235K, 297E, 315Q, 384Q, des447 hIgG4-Fc(228-447)) … (other, Cys229 (EU numbering) sulphur bound to an acetyl arm of the linker; A98K N(eps) acylated by the trivalent linker 4-[bis[2-[(2-acetyl)amino]ethyl]carbamoylamino]butanoyl, also called Ex 5.24) chain 1: GIVEQCCTSICSLEQLENYCGGQAPGQAPGQEPGQAPGQAPGQEPGQAPGQAPGQEPGQAPGQAPGQEPGQAPGQAPGQEPGQAPGQAPGQEPGQAPKP chain 2: FVQQHLCGSHLVEALYLVCGERGFHYTPR chain 3: ASCPAPEAKGGPSVFLFPPKPKDTLMISRTPEVTCVVVDVSQEDPEVQFNWYVDGVEVHNAKTKPREEQFESTYRVVSVLTVLHQDWLQGKEYKCKVSNKGLPSSIEKTISKAKGQPREPQVYTLPPSQEEMTKNQVSLTCLVKGFYPSDIAVEWESQGQPENNYKTTPPVLDSDGSFFLYSRLTVDKSRWQEGNVFSCSVMHEALHNHYTQKSLSLSLG | 3.83 % of human insulin | 4.6
A14E, A21G, A22(GQEP)12, A70K^, A71P, B25H, B29R, desB30 human insulin/(227A, 234A, 235K, 297E, 315Q, 384Q, des447 hIgG4-Fc(228-447)) … (other, Cys229 (EU numbering) sulphur bound to an acetyl arm of the linker; A70K N(eps) acylated by the trivalent linker 4-[bis[2-[(2-acetyl)amino]ethyl]amino]-4-oxo-butanoyl, also called Ex 5.17) chain 1: GIVEQCCTSICSLEQLENYCGGQEPGQEPGQEPGQEPGQEPGQEPGQEPGQEPGQEPGQEPGQEPGQEPKP chain 2: FVNQHLCGSHLVEALYLVCGERGFHYTPR chain 3: ASCPAPEAKGGPSVFLFPPKPKDTLMISRTPEVTCVVVDVSQEDPEVQFNWYVDGVEVHNAKTKPREEQFESTYRVVSVLTVLHQDWLQGKEYKCKVSNKGLPSSIEKTISKAKGQPREPQVYTLPPSQEEMTKNQVSLTCLVKGFYPSDIAVEWESQGQPENNYKTTPPVLDSDGSFFLYSRLTVDKSRWQEGNVFSCSVMHEALHNHYTQKSLSLSLG | 4.39 % of human insulin | 3.98

More lines, now with the values ahead:

Lipogenesis in rat adipocytes [Potency (%)] Mean Value [1] | Insulin receptor affinity [IC50 relative to HI (%)] (insulin receptor A) [%] | Binder
3.02 % of human insulin | 4 | A14E, A21G, A22(GQAPGQAPGQEP)6-GQAP, A98K^, A99P, B29R, desB30 human insulin/(227A, 234A, 235K, 297E, 315Q, 384Q, des447 hIgG4-Fc(228-447)) … (other, Cys229 (EU numbering) sulphur bound to an acetyl arm of the linker; A98K N(eps) acylated by the trivalent linker 4-[bis[2-[(2-acetyl)amino]ethyl]amino]-4-oxo-butanoyl) chain 1: GIVEQCCTSICSLEQLENYCGGQAPGQAPGQEPGQAPGQAPGQEPGQAPGQAPGQEPGQAPGQAPGQEPGQAPGQAPGQEPGQAPGQAPGQEPGQAPKP chain 2: FVNQHLCGSHLVEALYLVCGERGFFYTPR chain 3: ASCPAPEAKGGPSVFLFPPKPKDTLMISRTPEVTCVVVDVSQEDPEVQFNWYVDGVEVHNAKTKPREEQFESTYRVVSVLTVLHQDWLQGKEYKCKVSNKGLPSSIEKTISKAKGQPREPQVYTLPPSQEEMTKNQVSLTCLVKGFYPSDIAVEWESQGQPENNYKTTPPVLDSDGSFFLYSRLTVDKSRWQEGNVFSCSVMHEALHNHYTQKSLSLSLG
3.07 % of human insulin | 5.55 | A14E, A21G, A22(GQAPGQAPGQEP)6-GQAP, A98K^, A99P, B3Q, B25H, B29R, desB30 human insulin/(227A, 234A, 235K, 297E, 315Q, 384Q, des447 hIgG4-Fc(228-447)) … (other, Cys229 (EU numbering) sulphur bound to an acetyl arm of the linker; A98K N(eps) acylated by the trivalent linker 4-[bis[2-[(2-acetyl)amino]ethyl]amino]-4-oxo-butanoyl, also called Ex 5.13) chain 1: GIVEQCCTSICSLEQLENYCGGQAPGQAPGQEPGQAPGQAPGQEPGQAPGQAPGQEPGQAPGQAPGQEPGQAPGQAPGQEPGQAPGQAPGQEPGQAPKP chain 2: FVQQHLCGSHLVEALYLVCGERGFHYTPR chain 3: ASCPAPEAKGGPSVFLFPPKPKDTLMISRTPEVTCVVVDVSQEDPEVQFNWYVDGVEVHNAKTKPREEQFESTYRVVSVLTVLHQDWLQGKEYKCKVSNKGLPSSIEKTISKAKGQPREPQVYTLPPSQEEMTKNQVSLTCLVKGFYPSDIAVEWESQGQPENNYKTTPPVLDSDGSFFLYSRLTVDKSRWQEGNVFSCSVMHEALHNHYTQKSLSLSLG
2.08 % of human insulin | 4.49 | (A14A, A21G, A22(GQAP)18, A94G, A95Q, A96A, A97K^, A98P, B29R, desB30 human insulin)/(227A, 234A, 235K, 297E, 315Q, 384Q, des447 hIgG4-Fc(228-447)) … (other, Cys229 (EU numbering) sulphur bound to an acetyl arm of the linker; A97K N(eps) acylated by the trivalent linker 4-[bis[2-[(2-acetyl)amino]ethyl]amino]-4-oxo-butanoyl, also called Ex 5.25) chain 1: GIVEQCCTSICSLAQLENYCGGQAPGQAPGQAPGQAPGQAPGQAPGQAPGQAPGQAPGQAPGQAPGQAPGQAPGQAPGQAPGQAPGQAPGQAPGQAKP chain 2: FVNQHLCGSHLVEALYLVCGERGFFYTPR chain 3: ASCPAPEAKGGPSVFLFPPKPKDTLMISRTPEVTCVVVDVSQEDPEVQFNWYVDGVEVHNAKTKPREEQFESTYRVVSVLTVLHQDWLQGKEYKCKVSNKGLPSSIEKTISKAKGQPREPQVYTLPPSQEEMTKNQVSLTCLVKGFYPSDIAVEWESQGQPENNYKTTPPVLDSDGSFFLYSRLTVDKSRWQEGNVFSCSVMHEALHNHYTQKSLSLSLG
